The supplement of paper PMC9112550, “Optimization of the antimicrobial peptide Bac7 by deep mutational scanning” (BMC Biology, 2022)

System: Escherichia coli TOP10
Experiment: shrunken log2 fold change of peptide-encoding DNA abundance (4.5 h post-induction vs induction); higher = less antimicrobial activity (less host growth inhibition)
Details: time post-induction: 4.5 h; library: site-saturation at positions 5, 18, 19, 20
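Also: peptides expressed intracellularly from a pBAD plasmid library in pooled LB shake-flask culture, induced with 0.3% L-arabinose, DNA abundance read by NGS, three biological replicates, DESeq2 with apeglm shrinkage.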

Sequence	shrunken log2 fold change
RRIRTRPPRLPRPRPRPLVPPRP	0.193
RRIRTRPPRLPRPRPRPLVRPRP	0.114
RRIRTRPPRLPRPRPRPMCVPRP	0.103
RRIRTRPPRLPRPRPRPMCYPRP	-0.252
RRIRTRPPRLPRPRPRPMDPPRP	-0.107
RRIRTRPPRLPRPRPRPMEQPRP	-0.189
RRIRTRPPRLPRPRPRPMFEPRP	-0.171
RRIRTRPPRLPRPRPRPMGLPRP	0.12
RRIRTRPPRLPRPRPRPMHMPRP	-0.202
RRIRTRPPRLPRPRPRPMIKPRP	-0.103
RRIRTRPPRLPRPRPRPMIPPRP	-0.12
RRIRTRPPRLPRPRPRPMISPRP	-0.0443
RRIRTRPPRLPRPRPRPMITPRP	-0.0731
RRIRTRPPRLPRPRPRPMKRPRP	0.298
RRIRTRPPRLPRPRPRPMLCPRP	-0.00838
RRIRTRPPRLPRPRPRPMLEPRP	0.018
RRIRTRPPRLPRPRPRPMMEPRP	-0.202
RRIRTRPPRLPRPRPRPMNDPRP	-0.0997
RRIRTRPPRLPRPRPRPMNMPRP	-0.24
RRIRTRPPRLPRPRPRPMPFPRP	-0.00604
RRIRTRPPRLPRPRPRPMPQPRP	-0.134
RRIRTRPPRLPRPRPRPMQDPRP	0.118
RRIRTRPPRLPRPRPRPMRCPRP	-0.117
RRIRTRPPRLPRPRPRPMSWPRP	0.0201
RRIRTRPPRLPRPRPRPMTAPRP	0.154

Sequence	shrunken log2 fold change
RRIRTRPPRLPRPRPRPMVYPRP	-0.09
RRIRTRPPRLPRPRPRPMWMPRP	-0.177
RRIRTRPPRLPRPRPRPMWRPRP	-0.0938
RRIRTRPPRLPRPRPRPMYKPRP	-0.0126
RRIRTRPPRLPRPRPRPNALPRP	-0.0225
RRIRTRPPRLPRPRPRPNAYPRP	-0.195
RRIRTRPPRLPRPRPRPNCKPRP	-0.218
RRIRTRPPRLPRPRPRPNCYPRP	-0.836
RRIRTRPPRLPRPRPRPNEGPRP	-0.191
RRIRTRPPRLPRPRPRPNEYPRP	-0.22
RRIRTRPPRLPRPRPRPNFEPRP	-0.101
RRIRTRPPRLPRPRPRPNFTPRP	-0.0395
RRIRTRPPRLPRPRPRPNGEPRP	-0.12
RRIRTRPPRLPRPRPRPNGGPRP	0.033
RRIRTRPPRLPRPRPRPNGSPRP	-0.198
RRIRTRPPRLPRPRPRPNGWPRP	0.215
RRIRTRPPRLPRPRPRPNICPRP	0.00449
RRIRTRPPRLPRPRPRPNIDPRP	-0.32
RRIRTRPPRLPRPRPRPNKIPRP	-0.799
RRIRTRPPRLPRPRPRPNLGPRP	0.152
RRIRTRPPRLPRPRPRPNNGPRP	-0.602
RRIRTRPPRLPRPRPRPNPWPRP	0.0694
RRIRTRPPRLPRPRPRPNQDPRP	-0.308
RRIRTRPPRLPRPRPRPNQEPRP	0.0313
RRIRTRPPRLPRPRPRPNQSPRP	-0.187

Sequence	shrunken log2 fold change
RRIRTRPPRLPRPRPRPNQTPRP	-0.155
RRIRTRPPRLPRPRPRPNSWPRP	-0.413
RRIRTRPPRLPRPRPRPNTVPRP	-0.305
RRIRTRPPRLPRPRPRPNVPPRP	-0.0447
RRIRTRPPRLPRPRPRPNVYPRP	-0.683
RRIRTRPPRLPRPRPRPNWEPRP	0.00854
RRIRTRPPRLPRPRPRPNWKPRP	-0.0427
RRIRTRPPRLPRPRPRPNYGPRP	-0.363
RRIRTRPPRLPRPRPRPNYKPRP	-0.823
RRIRTRPPRLPRPRPRPNYNPRP	-0.831
RRIRTRPPRLPRPRPRPNYWPRP	-0.208
RRIRTRPPRLPRPRPRPPAYPRP	-0.0816
RRIRTRPPRLPRPRPRPPCDPRP	0.0499
RRIRTRPPRLPRPRPRPPCEPRP	0.0977
RRIRTRPPRLPRPRPRPPCMPRP	0.0978
RRIRTRPPRLPRPRPRPPCPPRP	0.15
RRIRTRPPRLPRPRPRPPDAPRP	0.232
RRIRTRPPRLPRPRPRPPDGPRP	-0.0813
RRIRTRPPRLPRPRPRPPERPRP	0.351
RRIRTRPPRLPRPRPRPPGLPRP	1.11
RRIRTRPPRLPRPRPRPPIEPRP	-0.0275
RRIRTRPPRLPRPRPRPPKRPRP	0.302
RRIRTRPPRLPRPRPRPPKVPRP	0.286
RRIRTRPPRLPRPRPRPPLCPRP	0.0694
RRIRTRPPRLPRPRPRPPLEPRP	0.531

Sequence	shrunken log2 fold change
RRIRTRPPRLPRPRPRPPLFPRP	0.482
RRIRTRPPRLPRPRPRPPLGPRP	0.328
RRIRTRPPRLPRPRPRPPLIPRP	0.0432
RRIRTRPPRLPRPRPRPPLLPRP	0.172
RRIRTRPPRLPRPRPRPPLNPRP	-0.183
RRIRTRPPRLPRPRPRPPLYPRP	-0.12
RRIRTRPPRLPRPRPRPPMKPRP	-0.112
RRIRTRPPRLPRPRPRPPNAPRP	0.535
RRIRTRPPRLPRPRPRPPNGPRP	0.104
RRIRTRPPRLPRPRPRPPNMPRP	-0.203
RRIRTRPPRLPRPRPRPPPNPRP	1.22
RRIRTRPPRLPRPRPRPPPWPRP	0.614
RRIRTRPPRLPRPRPRPPQHPRP	0.22
RRIRTRPPRLPRPRPRPPRDPRP	0.4
RRIRTRPPRLPRPRPRPPRWPRP	0.689
RRIRTRPPRLPRPRPRPPTHPRP	0.176
RRIRTRPPRLPRPRPRPPVYPRP	-0.0771
RRIRTRPPRLPRPRPRPPWEPRP	0.506
RRIRTRPPRLPRPRPRPPWHPRP	0.118
RRIRTRPPRLPRPRPRPPWIPRP	0.161
RRIRTRPPRLPRPRPRPPWPPRP	0.356
RRIRTRPPRLPRPRPRPPWVPRP	0.128
RRIRTRPPRLPRPRPRPQACPRP	-0.0237
RRIRTRPPRLPRPRPRPQAWPRP	4.37
RRIRTRPPRLPRPRPRPQDIPRP	-0.0501

Sequence	shrunken log2 fold change
RRIRTRPPRLPRPRPRPQDKPRP	-0.658
RRIRTRPPRLPRPRPRPQDPPRP	0.167
RRIRTRPPRLPRPRPRPQDTPRP	-0.284
RRIRTRPPRLPRPRPRPQFDPRP	-0.652
RRIRTRPPRLPRPRPRPQGDPRP	-0.0192
RRIRTRPPRLPRPRPRPQGLPRP	-0.0814
RRIRTRPPRLPRPRPRPQGYPRP	-0.943
RRIRTRPPRLPRPRPRPQHAPRP	-0.0164
RRIRTRPPRLPRPRPRPQHTPRP	-0.733
RRIRTRPPRLPRPRPRPQIVPRP	0.0532
RRIRTRPPRLPRPRPRPQLCPRP	-0.0792
RRIRTRPPRLPRPRPRPQLDPRP	-0.0457
RRIRTRPPRLPRPRPRPQLPPRP	0.107
RRIRTRPPRLPRPRPRPQLWPRP	-0.13
RRIRTRPPRLPRPRPRPQNPPRP	-0.148
RRIRTRPPRLPRPRPRPQNYPRP	-0.311
RRIRTRPPRLPRPRPRPQPWPRP	0.314
RRIRTRPPRLPRPRPRPQQLPRP	1.75
RRIRTRPPRLPRPRPRPQRCPRP	0.00192
RRIRTRPPRLPRPRPRPQTPPRP	0.25
RRIRTRPPRLPRPRPRPQVRPRP	0.0794
RRIRTRPPRLPRPRPRPQWVPRP	0.143
RRIRTRPPRLPRPRPRPRAEPRP	0.28
RRIRTRPPRLPRPRPRPRAHPRP	-0.186
RRIRTRPPRLPRPRPRPRAMPRP	0.41

Sequence	shrunken log2 fold change
RRIRTRPPRLPRPRPRPRAQPRP	0.461
RRIRTRPPRLPRPRPRPRDCPRP	0.057
RRIRTRPPRLPRPRPRPRDDPRP	0.107
RRIRTRPPRLPRPRPRPRETPRP	0.511
RRIRTRPPRLPRPRPRPRFFPRP	0.0438
RRIRTRPPRLPRPRPRPRFNPRP	-0.286
RRIRTRPPRLPRPRPRPRGKPRP	0.259
RRIRTRPPRLPRPRPRPRGYPRP	0.205
RRIRTRPPRLPRPRPRPRHMPRP	-0.115
RRIRTRPPRLPRPRPRPRHSPRP	-0.106
RRIRTRPPRLPRPRPRPRINPRP	-0.506
RRIRTRPPRLPRPRPRPRIPPRP	0.00212
RRIRTRPPRLPRPRPRPRKEPRP	0.102
RRIRTRPPRLPRPRPRPRKRPRP	0.152
RRIRTRPPRLPRPRPRPRLEPRP	0.32
RRIRTRPPRLPRPRPRPRLTPRP	-0.00933
RRIRTRPPRLPRPRPRPRMEPRP	-0.0325
RRIRTRPPRLPRPRPRPRMIPRP	0.113
RRIRTRPPRLPRPRPRPRMYPRP	0.0541
RRIRTRPPRLPRPRPRPRNPPRP	0.000872
RRIRTRPPRLPRPRPRPRRDPRP	0.394
RRIRTRPPRLPRPRPRPRSFPRP	-0.0927
RRIRTRPPRLPRPRPRPRSQPRP	1.58
RRIRTRPPRLPRPRPRPRSRPRP	0.143
RRIRTRPPRLPRPRPRPRWAPRP	0.541
